These results are taken from patent publication US20210269552A1 (GO THERAPEUTICS, published 2021).

Assay [1] concerns the target T1, MUC1 alanine library glycopeptide 9 (human, GalNAc-Serine / GalNAc-Threonine at the bold underlined positions of Table 10A (marking not preserved); the Thr-GalNAc at position 21 is replaced by alanine).
T1 construct: Position 21 (Thr-GalNAc) replaced by alanine
T1 peptide: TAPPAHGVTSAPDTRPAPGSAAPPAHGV
Kind of assay: ELISA, peptide coated at 0.25 µg/ml, antibody supernatant; OD mutant peptide / OD wild type glycopeptide (SEQ ID NO:99). The method, then:
(§1) Glycopeptides and relevant controls were diluted to 0.25 μg/ml in 0.2 M bicarbonate buffer pH 9.8 and 100 μl was plated onto each well of a high binding ELISA plate. Plates were then incubated overnight at 4° C. After discarding the coating buffer, the plate was blocked with 300 μl per well of blocking buffer (2.5% BSA in 1×PBS) for 1 hr at room temperature. Blocking buffer was then discarded, and 100 μl per well of antibody supernatant for each of 5E5, 1AG, and 4AG (diluted in blocking buffer) was added and incubated for 1 hr at room temperature. Antibody supernatant dilutions were previously optimized for each antibody (data not shown). Biotinylated Villa Villosa lectin (100 μl per well of 1 μg/ml in blocking buffer) was added to the plate as a control to detect the presence of GalNAc modified residues on the peptide. Plates were washed 3 times with 300 μl per well 1×TBS/0.05% Tween-20 (TBST). The secondary antibody Goat-anti mouse IgG (H+L)-HRP was diluted 1/5000 in blocking buffer and 100 μl of the diluted antibody was added per well and incubated on the plate for 1 hr at room temperature. Streptavidin-HRP was diluted 1/3000 in blocking buffer and 100 μl of the diluted streptavidin-HRP was added to wells containing the biotinylated lectin. Following secondary incubation, the plate was washed 4 times with 300 μl of TBST per well and then developed with 75 μl of room temperature 1-Step TMB substrate. After 1 minute, color development was stopped using 75 μl 2 N sulfuric acid. The plate was then read at 450 nm using a plate reader (Molecular Device SpectraMax i3).

Assay [2] deals with T2, MUC1 alanine library glycopeptide 8 (human, GalNAc-Serine / GalNAc-Threonine at the bold underlined positions of Table 10A (marking not preserved); the Ser-GalNAc at position 20 is replaced by alanine).
T2 construct: Position 20 (Ser-GalNAc) replaced by alanine
T2 peptide: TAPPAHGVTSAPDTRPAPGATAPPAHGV
Described as above. The procedure:
as §1

For a further assay, the target named is T3, 1 (GalNAc-Ser / GalNAc-Thr at the positions marked bold and underlined in Table 10A (the marking is lost in the text as given)).
T3 construct: also called MUC1 alanine library glycopeptide 1; peptide 1
T3 peptide: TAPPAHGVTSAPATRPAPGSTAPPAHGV
Kind of assay: alanine-scan ELISA: peptides coated at 0.25 ug/ml, antibody supernatant, anti-mouse IgG-HRP; OD450 divided by OD450 on the wild-type peptide. The procedure:
as §1
A general note: In an ELISA, binding on a coated surface is turned into a signal by an enzyme label.

The target in assay [3] is T4, MUC1 alanine library glycopeptide 12 (human, GalNAc-Serine / GalNAc-Threonine at the bold underlined positions of Table 10A (marking not preserved)).
T4 peptide: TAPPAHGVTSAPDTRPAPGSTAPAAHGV
Described as above. The procedure: as §1

In assay [4] the target is T5, MUC1 alanine library glycopeptide 3 (human, GalNAc-Serine / GalNAc-Threonine at the bold underlined positions of Table 10A (marking not preserved)).
T5 construct: Position 15 (R) replaced by alanine
T5 peptide: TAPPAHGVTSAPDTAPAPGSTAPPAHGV
The description is as above. The method, then: as §1

In the next assay the target is T6, 2 (GalNAc-Ser / GalNAc-Thr at the positions marked bold and underlined in Table 10A (the marking is lost in the text as given)).
T6 construct: also called MUC1 alanine library glycopeptide 2; peptide 2
T6 peptide: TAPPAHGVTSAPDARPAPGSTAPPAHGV
The description is as above. The method, then: as §1

For the next assay, the target named is T7, Negative (none (non-glycosylated)).
T7 construct: also called Negative Control
T7 peptide: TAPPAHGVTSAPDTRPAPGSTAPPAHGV
Described as above. The procedure: as §1

Assay [5] concerns the target T8, MUC1 alanine library glycopeptide 4 (human, GalNAc-Serine / GalNAc-Threonine at the bold underlined positions of Table 10A (marking not preserved)).
T8 construct: Position 16 (P) replaced by alanine
T8 peptide: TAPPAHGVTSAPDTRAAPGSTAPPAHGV
The assay is described as above. The procedure:
as §1

Assay [6] addresses T2, MUC1 alanine library glycopeptide 8. Described as above. The method, then:
as §1

A further assay has as its target T9, Irrelevant Glycopeptide (GalNAc-Ser / GalNAc-Thr at the positions marked bold and underlined in Table 10B (the marking is lost in the text as given)).
T9 peptide: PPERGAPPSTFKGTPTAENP
The description is as above. The procedure:
as §1

Assay [7] has as its target T10, BSA (bovine, UniProt P02769).
T10 construct: commercial protein in control wells; also called bovine serum albumin
The assay can be described thus: indirect ELISA on BSA blocked control wells, hybridoma supernatant, anti-mouse IgG-HRP, OD 450 nm. The procedure: (§2) ELISA plates were coated with MUC1 peptides titrated in 0.2 M bicarbonate buffer, pH 9.4 over night in concentrations ranging from 0.08 μg/ml to 10 μg/ml. BSA was used as a control/measure of background. The plates were then blocked with SuperBlock™ (Thermo Fisher) for 1 hr at room temperature. After plate washing, 1AG and 4AG hybridoma supernatants were incubated on the ELISA plate for 1 hour. The plates were then washed, and then incubated with secondary antibody (1/3000 Goat Anti-mouse IgG (H+L) HRP (abcam 62-6520)) for 1 hour. The plate was then washed and color was developed with 1-Step™ Ultra TMB (Thermo Fisher) for 2 minutes. Color development was then stopped with 2 N Sulfuric Acid. Absorbance at 450 nm was then measured.

Assay [8] has as its target T11, Glycosylated peptide RPAPGSTAPPAHGVT (Table 5, SPR) (human, also: GalNAc at sites not preserved).
T11 construct: Printed without biotin
T11 peptide: RPAPGSTAPPAHGVT
The assay can be described thus: SPR, Biacore T200, antibody on chip, peptide injected in single-cycle 6.25-100 nM, 25 C. The method, then:
Binding of the 1AG and 4AG antibodies to one glycysolated and one non-glycosylated peptide (Table 5) was assessed by surface plasmon resonance (SPR).
All SPR experiments were performed on a Biacore T200 with a CM5 sensor chip with 10,000 RU anti-mouse antibody on each channel (GE Healthcare) at 25° C. with HBS-P+ as running and sample buffer (10 mM HEPES pH 7.4, 150 mM NaCl, 0.05% Tween 20, and 1 mg/ml BSA) and 10 mM glycine, pH 1.7 as regeneration buffer.
The 1AG and 4AG antibodies were immobilized as a 30 μg/mL solution in 10 mM sodium acetate, pH 5.0 using standard amine coupling chemistry (EDC/NHS activation). Antibody capture was performed using a 10× dilution into reaction buffer for 7 to 10 minutes at 5 μL/min. Immobilization levels of 600 to 1000 RU were used. […] The dissociation was monitored for 5 minutes to 30 minutes.
A general note: Surface plasmon resonance follows binding to a sensor surface in real time, without labels.

In assay [9] the target is T10, BSA. The assay can be described thus: indirect ELISA, BSA control wells drawn on the peptide axis, hybridoma supernatant, anti-mouse IgG-HRP, OD 450 nm. The method, then: as §2
Assay [10] addresses T12, MUC1 alanine library glycopeptide 11 (human, GalNAc-Serine / GalNAc-Threonine at the bold underlined positions of Table 10A (marking not preserved)).
T12 construct: Position 23 (P) replaced by alanine
T12 peptide: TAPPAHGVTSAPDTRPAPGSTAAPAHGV
Kind of assay: alanine-scan ELISA: peptides coated at 0.25 ug/ml, antibody supernatant, anti-mouse IgG-HRP; OD450 divided by OD450 on the wild-type peptide. The procedure:
as §1

Assay [11] has as its target T13, MUC1 alanine library glycopeptide 6 (human, GalNAc-Serine / GalNAc-Threonine at the bold underlined positions of Table 10A (marking not preserved)).
T13 construct: Position 18 (P) replaced by alanine
T13 peptide: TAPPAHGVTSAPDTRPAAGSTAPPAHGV
Described as above. The method, then:
as §1

The target of assay [12] is T14, MUC1 alanine library glycopeptide 10 (human, GalNAc-Serine / GalNAc-Threonine at the bold underlined positions of Table 10A (marking not preserved)).
T14 construct: Position 22 (A) replaced by glycine
T14 peptide: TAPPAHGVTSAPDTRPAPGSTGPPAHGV
The assay is described as above. The procedure: as §1

Numbering of substitutions follows the chain as printed. No end group written: not given here.

T10 sequence (P02769 25-607 limits assumed): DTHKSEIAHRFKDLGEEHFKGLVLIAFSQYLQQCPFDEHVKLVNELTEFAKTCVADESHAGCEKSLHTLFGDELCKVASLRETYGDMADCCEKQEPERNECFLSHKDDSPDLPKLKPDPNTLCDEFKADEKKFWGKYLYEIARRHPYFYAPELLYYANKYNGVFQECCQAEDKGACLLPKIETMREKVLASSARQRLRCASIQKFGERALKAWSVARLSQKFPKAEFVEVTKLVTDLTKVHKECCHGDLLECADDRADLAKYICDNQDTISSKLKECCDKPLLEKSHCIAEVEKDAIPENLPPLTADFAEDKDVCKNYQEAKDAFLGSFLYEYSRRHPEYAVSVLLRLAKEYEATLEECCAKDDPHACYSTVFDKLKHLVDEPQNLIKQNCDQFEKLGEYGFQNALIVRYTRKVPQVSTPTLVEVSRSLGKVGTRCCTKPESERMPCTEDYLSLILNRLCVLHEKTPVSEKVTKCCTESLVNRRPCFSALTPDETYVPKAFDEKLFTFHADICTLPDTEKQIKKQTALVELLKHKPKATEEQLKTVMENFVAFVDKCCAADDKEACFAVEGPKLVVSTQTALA

For the molecule 5E5 (antibody), the percent binding compared to the wild type peptide in [1] was determined as 2.93%; in assay [2], 18%.

B1: 1AG (antibody, V domains shown)
VH: EVKLLESGGGLVQPGGSLKLSCAASGFDFSRDWMSWVRQAPGKGLEWIGEINPDSSTKNYTPSLKDKFIISRDNAKNTLFLQMSSVRSEDTALYYCATSHYYGLFGYWGQGTLVTVSA
VL: DIVLTQSPASLTVSLGQRATISCRASKSVSTSGYSYMHWYQQKPGQPPKLLIYLASYLESGVPARFSGSGSGTDFTLNIHPVEEEDAATYYCQHSRELPRTFGGGTKLEIK
notes: Mouse monoclonal antibody from Balb/c hybridoma; Used as hybridoma supernatant in the ELISAs; also called mAb 1AG; antibody 1AG
For B1, the “percent binding compared to the wild type peptide” value in [1] came out at 6.07%; in [2], 2.23%. For the same molecule, the binding result in the assay with 1 is listed as “binds”; in assay [3], “binds”; in [4] it was “binds”; in the assay with 2, “binds”; with Negative it was “no binding (tested: 0.25 ug/ml coating peptide)”; in assay [5], “binds”. In addition, the binding result was “no binding (tested: 0.25 ug/ml coating peptide)” in [6], “no binding (tested: 0.25 ug/ml coating peptide)” with Irrelevant Glycopeptide and “no binding” with BSA [7]. In assay [8], this molecule yielded a Kd of 37.3 nM. This molecule showed a koff in assay [8] of 0.007 s⁻¹. In assay [8], the association rate constant (kon) came to 179000 M⁻¹ s⁻¹.

B2: 4AG (antibody, V domains shown)
VH: EVKLLESGGGLVQPGGSLKLSCVASGFDFSRYWMSWVRQAPGKGPEWIGEINPESNTMNYSPSLKEKFIISRDTAKNMLYLQMSKVRSEDTALYYCATSHHYGLFDYWGQGTLVTVSA
VL: B1 VL with T12A, S35N, M37I, Y91F, I110F
notes: Mouse monoclonal antibody from Balb/c hybridoma; Used as hybridoma supernatant in the ELISAs; also called mAb 4AG; antibody 4AG
With B2, the binding result with BSA [9] is on record as “no binding (tested: 10 ug/ml on the peptide axis)”; in the assay with 1 it was “binds”; in assay [3], “binds”; in assay [4], “binds”; in the assay with 2, “binds”; with Negative, “no binding (tested: 0.25 ug/ml coating peptide)”. Moreover, the binding result in [5] is listed as “binds”; in assay [6] it was “no binding (tested: 0.25 ug/ml coating peptide)”; in the assay with Irrelevant Glycopeptide, “no binding (tested: 0.25 ug/ml coating peptide)”; in [10] it was “binds”; in assay [11] it was “binds”; in assay [12], “binds”. For the same molecule, the results for the “percent binding compared to the wild type peptide” value in assay [1] and in [2] were 14.6% and 1.63%, respectively. The molecule also came in with a Kd in assay [8] of 3.4 nM. Further, the koff in assay [8] stood at 0.00093 s⁻¹. For the same molecule, in [8], the kon turned out to be 272000 M⁻¹ s⁻¹.

The Kd is the free concentration of one partner at which half of the binding sites on the other are occupied at equilibrium, for simple one-to-one binding. High values mean weaker binding, low ones tighter binding. For orientation: koff means the rate constant with which the complex falls apart. Read a low koff as a long-lived complex. Broadly, the kon is a measure of how fast the partners come together. Read a high kon as faster complex formation.
